Measured values taken from US20250289866A1 (published 2025).

Target: T1, NDC80 (NDC80 CT antigen; peptide NDC80-330) peptide on HLA-A*02:01 (human)
T1 peptide: GLNEEIARV
Test: multimer staining

B1: NDC80-330 specific TCR (TCR, V domains shown)
Valpha: EDQVTQSPEALRLQEGESSSLNCSYTVSGLRGLFWYRQDPGKGPEFLFTLYSAGEEKEKERLKATLTKKESFLHITAPKPEDSATYLCAVQAGSSASKIIFGSGTRLSIRP
Vbeta: DAGVTQSPTHLIKTRGQQVTLRCSPKSGHDTVSWYQQALGQGPQFIFQYYEEEERQRGNFPDRFSGHQFPNYSSELNVNALLLGDSALYLCASSLSGGIYEQYFGPGTRLTVT
Q: Does B1 bind?
A: recognises
